Reference: the RNAGym collection of RNA variant scans (doi:10.1073/pnas.2313332121)

B1: TPR t1 (parent)
chain: GACCAAUCUGCCCUCAGAGCUCGAGAACAUCUUCGGAUGCAGAGGAGGCAGGCUUCGGUGGCGCGAUAGCGCCAACGUCCUCAACCUCCAAUGCAUCCCACCACAUGAUGAUGCCUGAAGAGCCUUGGUUUUUUG

Variants of: B1
Test: polymerase ribozyme fitness, log enrichment relative to wild type (log ratio); higher = more active; in vitro selection for triplet polymerase activity
Procedure, shortened: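 Input and output libraries were sequenced on Illumina after a single in vitro selection round, run in triplicate on PCR-built, transcribed mutant libraries of each subunit of a heterodimeric triplet polymerase ribozyme. Selection annealed libraries to a biotinylated primer, the partner subunit and triplets, incubated them frozen at −7 °C, then gel-excised extended constructs for streptavidin-bead capture and RT-PCR. Genotypes with ≥10 input reads and ≥1 read per output were kept. Fitness is the logarithm, taken in base 2, of genotype enrichment divided by wild-type enrichment, using inverse-variance-weighted replicate averages.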

Row | Variant | polymerase ribozyme fitness (log ratio)
1 | G71A U130C | 0.53
2 | C49U A50G G71U A105U | -4.83
3 | C4A A18C C49U C85U C114G | -5.25
4 | G61U A103C | -5.47
5 | G39C C70U U112C | 1.16
6 | G19C U78C G110C | -5.42
7 | C12G C72U U116A G120U | -0.787
8 | G52C G113A C124U | -1.69
9 | C98G G120C | -3.19
10 | A50C G61C U109A | -6.96
11 | A41U C64U C94U U133G | -1.82
12 | C104G U106A C124G | -3.47
13 | C86A C98U | -0.468
14 | C40U G45C C49U G63U A83U | -5.92
15 | A27U C53U G77A | -3.79
16 | C3G C12G C53A G61U C114G | -5.41
17 | U96C C123G | 1.78
18 | U14A G45A G47U G52A C86A | -3.59
19 | U87A C123A | 0.223
20 | U7G A50U C64U G117C | -4.92
21 | A43U G45C C49U G61U G120A | -1.99

Row | Variant | polymerase ribozyme fitness (log ratio)
22 | G60U C97A C104U U126G | -5.83
23 | C53U A91U C123A | -1.7
24 | G36C G45C C98U | -3.33
25 | A41C C123A | -0.408
26 | C3G G36U C79U C89G C123G U133G | -3.18
27 | C49G C62U | -0.813
28 | G60A A100C C104U C123A | -0.726
29 | G60A G113C G135U | -5.16
30 | G61A C73G | -1.15
31 | G71U G117A | -1.51
32 | A5G C12A U59C | 0.0118
33 | U38A U96G U112A G128A | -2.89
34 | C20U G110U | -3.13
35 | G17A G71U | -3.07
36 | C40A G71U G117C G120C | -5.63
37 | C62G G93C | -3.7
38 | C4G U7C C56U G60U C101A | -6.75
39 | A74C C79A U131G | -0.848
40 | C12U C86U A103U A111U | -4.99
41 | C13A G93C C123G | -0.906
42 | C49U G128C | -2.44

Row | Variant | polymerase ribozyme fitness (log ratio)
43 | A29G U130G | -1.15
44 | C53G U78C C80U A91G U92C C124A | -5.02
45 | A37U A111U | -3.3
46 | C73G A100U | -1.09
47 | A5C G60A C101U | -0.437
48 | G63A U131G G135U | -0.787
49 | C40A G69C A105G | -6.71
50 | C12A A37C A50G C53A | -0.87
51 | A50G C79A U96C | -2.32
52 | C8A G61A U131C | 0.52
53 | A66C G69A C123U U126A | -4.63
54 | C11G G52U A118G C124G | 0.453
55 | C49U U81G U96C | -4.63
56 | C3A G44C C53U C123A | -1.67
57 | A16G C53G U87G U96A U112A | -1.33
58 | C8U G52C | -0.0551
59 | C53U C70U A74G G113C | -4.41
60 | C86U U131G | -0.498
61 | A37G G69U C99A C114A | -3.09
62 | C11U G19C G71A U116C A119U G122A | -6.27
63 | G45A A103C U106A C115G | -5.5

Row | Variant | polymerase ribozyme fitness (log ratio)
64 | G113A U134G G135U | -1.24
65 | A2C U59C C73A U131A | -2.5
66 | C97A U112C | -2.11
67 | U32C C62U G77C A100C U106G | -3.33
68 | C15U A46G G69C C86G C124U | -3.98
69 | G52C C79G | -0.316
70 | A26U C62U U78C G128C | -6.34
71 | C62U C73A G113A | -1.96
72 | C64A A121C | -4.57
73 | C3G G47C G52A U87A C124G | -4.41
74 | U33G C94A G113C G117A | -6.01
75 | A2G U9C C13U A18U C56G A95G | -1.78
76 | A37U A50C G63U C79A C80G G107U G117C | -6.62
77 | A18G G52C | -3.49
78 | C99U U133A | -2.99
79 | A26U C123G | -1.74
80 | G47U G61C | -2.36
81 | C12G C73G C88G | -1.78
82 | G77U C94U C102A C115A | -2.01
83 | U9G G36U G60C A68G U78A C88A | -6.1
84 | G61C C123G | 0.189
